# Paper PMC3642871 (Biochemistry, 2008)
# B1: ΔC10 huMIF(1-104) (domain or fragment, human, UniProt P14174 2-105, looked up)
# chain: PMFIVNTNVPRASVPDGFLSELTQQLAQATGKPPQYIAVHVVPDQLMAFGGSSEPCALCSLHSIGKIGGAQNRSYSKLLCGLLAERLRISPDRVYINYYDMNAA
# B2: Recombinant, soluble huMIF receptor ectodomain (sCD74 73-232) (domain or fragment, UniProt P04233-2 73-232, looked up)
# chain: QQQGRLDKLTVTSQNLQLENLRMKLPKPPKPVSKMRMATPLLMQALPMGALPQGPMQNATKYGNMTEDHVMHLLQNADPLKVYPPLKGSFPENLRHLKNTMETIDWKVFESWMHHWLLFEMSRHSLEQKPTDAPPKESLELEDPSSGLGVTKQDLGPVPM
# B3: ΔC5 huMIF(1-109) (domain or fragment, human, UniProt P14174 2-110, looked up)
# chain: PMFIVNTNVPRASVPDGFLSELTQQLAQATGKPPQYIAVHVVPDQLMAFGGSSEPCALCSLHSIGKIGGAQNRSYSKLLCGLLAERLRISPDRVYINYYDMNAANVGWN
# B4: P107 huMIF (natural protein, human, UniProt P14174 2-115, looked up)
# chain: PMFIVNTNVPRASVPDGFLSELTQQLAQATGKPPQYIAVHVVPDQLMAFGGSSEPCALCSLHSIGKIGGAQNRSYSKLLCGLLAERLRISPDRVYINYYDMNAANVPGWNNSTFA
# Key:
# [1] = biological target: B2; assay: ELISA
# AUC = biological target: the molecule itself; assay: AUC
# Biotinylated huMIF = Biotinylated huMIF (human, UniProt P14174 2-115, biotin (sites not given)); assay: ELISA
Binder,binding result [1],stoichiometry N (AUC),binding result (Biotinylated huMIF)
B1,binds,3,
B2,,,binds
B3,binds,3,
B4,,3,
